According to patent publication US12649925B2, “Tissue-specific expression and hybrid plant production” (Dow AgroSciences LLC, priority 2013, dated 2026):
Substitutions are numbered along the chain they refer to.

B1: pDAB112377: Transient construct: ZmUbilv2/AAD1 v3/miR529 perfect target site with miR156 site mutated/ZmPer5 3′UTR (SEQ ID NO:10) (nucleic acid)
DNA: ATGGCTCATGCTGCCCTCAGCCCTCTCTCCCAACGCTTTGAGAGAATAGCTGTCCAGCCACTCACTGGTGTCCTTGGTGCTGAGATCACTGGAGTGGACTTGAGGGAACCACTTGATGACAGCACCTGGAATGAGATATTGGATGCCTTCCACACTTACCAAGTCATCTACTTTCCTGGCCAAGCAATCACCAATGAGCAGCACATTGCATTCTCAAGAAGGTTTGGACCAGTTGATCCAGTGCCTCTTCTCAAGAGCATTGAAGGCTATCCAGAGGTTCAGATGATCCGCAGAGAAGCCAATGAGTCTGGAAGGGTGATTGGTGATGACTGGCACACAGACTCCACTTTCCTTGATGCACCTCCAGCTGCTGTTGTGATGAGGGCCATAGATGTTCCTGAGCATGGCGGAGACACTGGGTTCCTTTCAATGTACACAGCTTGGGAGACCTTGTCTCCAACCATGCAAGCCACCATCGAAGGGCTCAACGTTGTGCACTCTGCCACACGTGTGTTCGGTTCCCTCTACCAAGCACAGAACCGTCGCTTCAGCAACACCTCAGTCAAGGTGATGGATGTTGATGCTGGTGACAGAGAGACAGTCCATCCCTTGGTTGTGACTCATCCTGGCTCTGGAAGGAAAGGCCTTTATGTGAATCAAGTCTACTGTCAGAGAATTGAGGGCATGACAGATGCAGAATCAAAGCCATTGCTTCAGTTCCTCTATGAGCATGCCACCAGATTTGACTTCACTTGCCGTGTGAGGTGGAAGAAAGACCAAGTCCTTGTCTGGGACAACTTGTGCACCATGCACCGTGCTGTTCCTGACTATGCTGGCAAGTTCAGATACTTGACTCGCACCACAGTTGGTGGAGTTAGGCCTGCCCGCTGAGTAGTTAGCTTAATCACCTAGAGCTCGACTCAGGCTGTACTCTCTCTCTTCACAAAGTACTCAGGTAACCTTTAAACTGAGGGCACTGAAGTCGCTTGATGTGCTGAATTGTTTGTGATGTTGGTGGCGTATTTTGTTTAAATAAGTAAGCATGGCTGTGATTTTATCATATGATCGATCTTTGGGGTTTTATTTAACACATTGTAAAATGTGTATCTATTAATAACTCAATGTATAAGATGTGTTCATTCTTCGGTTGCCATAGATCTGCTTATTTGACCTGTGATGTTTTGACTCCAAAAACCAAAATCACAACTCAATAAACTCATGGAATATGTCCACCTGTTTCTTGAAGAGTTCATCTACCATTCCAGTTGGCATTTATCAGTGTTGCAGCGGCGCTGTGCTTTGTAACATAACAATTGTTACGGCATATATCCAA
modifications: expression cassette; (969)..(1333) ZmPer5 3′UTR
B2: pDAB112376: Transient construct: ZmUbilv2/AAD1 v3/WT miR529 target site with miR156 site mutated/ZmPer5 3′UTR (SEQ ID NO:9) (nucleic acid)
DNA: B1 DNA with C937T, T938A
modifications: pDAB112377 expression cassette; (918)..(954) modified tsh4 target site; (969)..(1333) ZmPer5 3′UTR

Key:
Maize Immature Embryos [1] = assay: Transient AAD1 expression in immature embryos after particle bombardment, ELISA; assay type: cell-based, Zea mays; conditions: 24 hours after particle bombardment; co-bombardment plasmid pDAB112378 (artificial miRNA)
Source text: Zea mays embryos from inbred line B104 that express AAD1 mRNAs having miRNA target sites within the mRNA were produced. Control tissues having no miRNA target sites in the AAD1 mRNA, or having no AAD1 gene expression cassette, were also produced. Other control tissues were produced that had only a YFP gene expression cassette (and no AAD1 construct). Preparations of plant transformation DNA molecules constructed as described in EXAMPLE 2 were delivered into maize B104 immature embryos via particle bombardment transformation.
Plasmid DNAs of pDAB112375, pDAB112376, pDAB112377, pDAB113016, pDAB100286, pDAB112378 and pDAB112330 were isolated and purified from Escherichia coli by standard techniques, and diluted in TE buffer (10 mM Tris HCl plus 1 mM EDTA, pH 8) to 1.0 μg/μL.
Embryo isolation and culture: (Day 1) Surface-sterilized B104 immature ears (10 to 12 days post-pollination) were used for the isolation of embryos. Excised immature embryos from 3 to 4 ears were pooled into 2 mL microfuge tubes containing 2.0 mL liquid medium (LS basal medium (Linsmaier and Skoog, (1965) Physiologia Plantarum 18:100-27) containing CHU N6 vitamins (Chu et al. (1975) Scientia Sinica 18:659-68), 700 mg/L L-Proline, 68.5 gm/L sucrose, 36 gm/L D(+) glucose, and 1.5 mg/L 2,4-D). After embryo isolation, the liquid medium was removed and discarded. Embryos were removed and placed onto plates (40 embryos per plate) containing a semi-solid osmotic medium (MS basal medium (Murashige and Skoog, (1962) Physiologia Plantarum 15:473-497), 2 mg/L Glycine, 500 μg/L Thiamine, 500 μg/L Pyroxidine, 50 μg/L Nicotinic Acid., 120 gm/L sucrose, 100 mg/L myo-inositol, and 2.4 gm/L GELRITE). The embryos were arranged in a […] within the target area for particle bombardment. Three replicate plates were prepared for each construct to be tested. All plates were incubated at 28° C. under continuous low light (50 μEm^−2 sec^−1) for 24 hours prior to particle bombardment.
Coating gold particles with DNA: (Day 2) Tubes of frozen gold particles glycerol stock were thawed on ice for a few minutes, then vortexed for 2 minutes at high speed until a uniform gold suspension was produced. Gold suspension was pipetted into sterile microcentrifuge tubes (50 μL each), with an intermediate vortexing of the particle stock between each tube to maintain a uniform suspension. 2.5 μg each of appropriate plasmid DNAs were included. […]
ELISA quantification of AAD1 and PAT proteins: Enzyme Linked Immunosorbant Assays (ELISAs) were used to measure the production of AAD1 and PAT proteins in maize cells and stably-transformed tissues. […]

Maize Immature Embryos [2] = assay: Selection of Agrobacterium-transformed immature embryos on herbicide-containing medium; assay type: cell-based, Zea mays; conditions: Selection Medium I containing 100 nM R-Haloxyfop acid
Source text: Agrobacterium-mediated transformation was used to stably integrate a chimeric gene into the plant genome, and thus generate transgenic maize cells, tissues, and plants that produce AAD1 mRNAs having miRNA target sites within the mRNA. Control tissues having no miRNA target sites in the AAD1 mRNA were also produced. Transformed tissues were selected by their ability to grow on Haloxyfop-or Bialaphos-containing medium.
Callus Selection and Regeneration of Transgenic Events: Following the co-cultivation period, embryos were transferred to Resting Medium (4.33 g/L MS salts; 1× ISU Modified MS Vitamins; 30 g/L sucrose; 700 mg/L L-proline; 3.3 mg/L Dicamba in KOH; 100 mg/L myo-inositol; 100 mg/L Casein Enzymatic Hydrolysate; 15 mg/L AgNO3; 0.5 g/L MES (2-(N-morpholino) ethanesulfonic acid monohydrate; PHYTOTECHNOLOGIES LABR.; Lenexa, K S); 250 mg/L Cefotaxime; and 7.0 gm/L agar; at pH 5.8). No more than 36 embryos were moved to each plate. The plates were wrapped with Micropore™ tape and incubated at 27° C. with continuous light at approximately 50 μmol m^−2s^−1 light intensity for 7 to 10 days. […]

Molecule | Mean AAD1 Amount (Maize Immature Embryos [1]) | fate of transformed embryos on Haloxyfop-containing medium (Maize Immature Embryos [2])
B1 | 249 ng/mL | grew on Haloxyfop-containing medium and regenerated transgenic plants
B2 | 317 ng/mL | grew on Haloxyfop-containing medium and regenerated transgenic plants
